Values of other authors in PMC4843017.
pKd: −log10 of the molar value.

Target: Ndc80 complex (Homo sapiens) (UniProt O14777)
Experiment: isothermal titration calorimetry

Ndc80 complex (Homo sapiens), sequence (O14777 whole entry, chain 1 of 4): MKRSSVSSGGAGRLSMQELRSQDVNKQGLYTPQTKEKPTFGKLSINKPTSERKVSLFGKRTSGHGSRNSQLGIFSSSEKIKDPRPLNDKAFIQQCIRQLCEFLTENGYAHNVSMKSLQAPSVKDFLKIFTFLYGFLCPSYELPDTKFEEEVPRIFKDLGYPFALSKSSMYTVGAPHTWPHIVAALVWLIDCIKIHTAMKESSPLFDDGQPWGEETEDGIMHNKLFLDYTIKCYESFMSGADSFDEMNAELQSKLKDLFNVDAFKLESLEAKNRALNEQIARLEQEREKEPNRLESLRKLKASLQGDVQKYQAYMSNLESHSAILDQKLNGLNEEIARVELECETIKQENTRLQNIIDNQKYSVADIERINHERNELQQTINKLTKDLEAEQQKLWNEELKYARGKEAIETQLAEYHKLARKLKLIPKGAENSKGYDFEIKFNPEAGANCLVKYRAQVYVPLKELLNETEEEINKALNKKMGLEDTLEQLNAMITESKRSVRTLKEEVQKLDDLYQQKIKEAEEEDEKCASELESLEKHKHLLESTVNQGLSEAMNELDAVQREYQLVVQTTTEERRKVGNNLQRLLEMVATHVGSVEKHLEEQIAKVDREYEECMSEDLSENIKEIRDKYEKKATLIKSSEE
Ndc80 complex (Homo sapiens), sequence (Q9BZD4 whole entry, chain 2 of 4, further chain): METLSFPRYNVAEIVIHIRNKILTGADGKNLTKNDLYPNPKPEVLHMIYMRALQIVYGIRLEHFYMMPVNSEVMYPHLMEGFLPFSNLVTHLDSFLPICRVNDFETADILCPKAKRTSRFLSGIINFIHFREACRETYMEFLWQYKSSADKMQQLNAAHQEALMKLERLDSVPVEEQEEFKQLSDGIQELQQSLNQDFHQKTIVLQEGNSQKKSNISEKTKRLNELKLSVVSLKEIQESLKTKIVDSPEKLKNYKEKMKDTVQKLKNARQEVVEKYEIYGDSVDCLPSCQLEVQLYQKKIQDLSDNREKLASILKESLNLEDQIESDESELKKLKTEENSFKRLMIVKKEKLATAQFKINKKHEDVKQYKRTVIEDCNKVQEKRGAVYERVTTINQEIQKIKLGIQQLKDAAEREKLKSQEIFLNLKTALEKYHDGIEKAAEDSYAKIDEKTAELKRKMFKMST
Ndc80 complex (Homo sapiens), sequence (Q8NBT2 whole entry, chain 3 of 4, further chain): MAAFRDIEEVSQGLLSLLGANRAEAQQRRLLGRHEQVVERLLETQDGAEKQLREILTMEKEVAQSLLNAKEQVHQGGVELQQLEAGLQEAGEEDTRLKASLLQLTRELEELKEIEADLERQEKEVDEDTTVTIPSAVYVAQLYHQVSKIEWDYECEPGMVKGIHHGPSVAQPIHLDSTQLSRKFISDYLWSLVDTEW
Ndc80 complex (Homo sapiens), sequence (Q9HBM1 whole entry, chain 4 of 4, further chain): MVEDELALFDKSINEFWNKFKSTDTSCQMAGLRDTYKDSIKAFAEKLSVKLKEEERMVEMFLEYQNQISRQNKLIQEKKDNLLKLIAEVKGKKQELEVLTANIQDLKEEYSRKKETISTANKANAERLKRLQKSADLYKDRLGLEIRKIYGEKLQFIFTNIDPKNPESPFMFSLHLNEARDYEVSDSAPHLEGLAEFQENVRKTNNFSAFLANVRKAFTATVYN

## Mis12 complex (from UniProt Q9H081)
  pKd: 8.00
